In patent publication US20130071921A1 (Pfizer, published 2013):
Numbering of substitutions follows the chain as printed.

T1: Recombinant human Dkk-1 (R&D Systems cat no. 1096-DK/CF), 10xHis tag at the C terminal (human, UniProt O94907 32-266)
T1 construct: the actual N-terminus of the purified protein is marked in bold italic after residue 30, but the mark is an image lost in the text; also called rhuDkk-1; hDkk-1
T1 sequence: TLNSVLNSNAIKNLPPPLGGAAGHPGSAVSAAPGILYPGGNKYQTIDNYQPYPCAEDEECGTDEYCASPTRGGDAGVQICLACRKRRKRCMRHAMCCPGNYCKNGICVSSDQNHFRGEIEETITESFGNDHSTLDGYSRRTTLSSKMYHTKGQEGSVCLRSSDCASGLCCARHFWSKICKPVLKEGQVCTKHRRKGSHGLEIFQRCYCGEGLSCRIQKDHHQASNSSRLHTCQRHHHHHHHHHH

T2: recombinant mouse Dkk-2 (R&D systems Cat No. 2435-DK/CF) (mouse, UniProt Q9QYZ8 34-259, limits assumed)
T2 construct: Bought; also called mDkk-2
T2 sequence (looked up): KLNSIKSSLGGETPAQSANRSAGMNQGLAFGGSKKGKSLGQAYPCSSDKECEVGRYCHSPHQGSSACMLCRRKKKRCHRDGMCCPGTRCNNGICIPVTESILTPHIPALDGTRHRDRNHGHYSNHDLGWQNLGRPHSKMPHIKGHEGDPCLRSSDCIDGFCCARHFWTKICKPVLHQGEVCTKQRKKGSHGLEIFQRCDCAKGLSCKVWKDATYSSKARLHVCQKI

T3: recombinant mouse Dkk-1 (R&D systems Cat No. 1765-DK/CF) (mouse, UniProt O54908 32-272)
T3 construct: Bought
T3 sequence (looked up): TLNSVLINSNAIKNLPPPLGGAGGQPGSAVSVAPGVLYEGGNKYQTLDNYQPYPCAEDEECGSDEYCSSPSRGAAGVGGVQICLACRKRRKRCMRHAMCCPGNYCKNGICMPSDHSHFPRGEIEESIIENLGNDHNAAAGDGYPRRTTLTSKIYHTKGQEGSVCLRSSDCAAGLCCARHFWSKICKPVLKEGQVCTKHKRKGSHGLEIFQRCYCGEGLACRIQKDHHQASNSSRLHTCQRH

B1: 4E8.33L (antibody, V domains shown)
VH: EVQLVESGGGLVQPGGSLRLSCAASGFTFSSYAISWVRQAPGKGLEWVASVSGWLDTYYPDSVKGRFTISRDNAKNSLYLQMNSLRAEDTAVYYCATSLENYAFDYWGQGTTVTVSS
VL: EIVLTQSPATLSLSPGERATLSCRASESVDDFGISFINWYQQKPGQAPRLLIYAGSKQGSGIPARFSGSGSGTDFTLTISSLEPEDFAVYYCQQLKEVPPTFGGGTKVEIK
B2: 2E11.33L (antibody, V domains shown)
VH: EVQLVESGGGLVQPGGSLRLSCAASGFTFSSYAISWVRQAPGKGLEWVASVSGTGLGFQTYYPDSVKGRFTISRDNAKNSLYLQMNSLRAEDTAVYYCATSLRNYAFDYWGQGTTVTVSS
VL: B1 VL
B3: L2.4E1 (Fab, V domains shown)
VH: EVQLVESGGGLVQPGGSLRLSCAASGFTFSSYAISWVRQAPGKGLEWVASVSGHGVWTYYPDSVKGRFTISRDNAKNSLYLQMNSLRAEDTAVYYCATSLENYAFDYWGQGTTVTVSS
VL: B1 VL with I37M, G55A, L95S
notes: G55# and L56# read as gaps; tested as Fab (E. coli lysate, screening mode); human kappa CL and IgG2 CH1 not included here
B4: 4F10.33L (antibody, V domains shown)
VH: B2 VH with R103K
VL: B1 VL
B5: SL3.4F5 (Fab, V domains shown)
VH: B1 VH with W54G, L55G, D56R
VL: B1 VL with I37M, G55A, L95G
notes: tested as Fab (E. coli lysate, screening mode); human kappa CL and IgG2 CH1 not included here
B6: L2.P4.D1 (Fab, V domains shown)
VH: B2 VH with R103D
VL: B1 VL with I37M, G55A, L95S
notes: as for B5
B7: 36H.33L (antibody, V domains shown)
VH: B1 VH with L55F, E100R
VL: B1 VL
B8: JC18 wildtype (mouse) monoclonal antibody (antibody, mouse IgG1, V domains shown)
VH: EVKLVESGGGLVKPGGSLKLSCAASGFTFSNYAMSWVRQTPEKRLEWVASISGGGDTYYPDSVKGRFTISRDNVRNILYLQMSSLRSEDTAMYYCATSLENYAMDYWGQGTSITVSS
VL: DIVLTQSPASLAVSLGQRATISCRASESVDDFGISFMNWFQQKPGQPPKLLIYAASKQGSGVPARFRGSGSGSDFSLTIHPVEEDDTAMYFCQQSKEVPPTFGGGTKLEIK
notes: also called muMabJC18; MabJC18

What was measured:
[1] = target: T1, Recombinant human Dkk-1 (R&D Systems …); experiment: SPR 37C (BIAcore/ProteOn), hDkk-1 series over captured IgG (taken so as kon is printed)
[2] = target: T1, Recombinant human Dkk-1 (R&D Systems …); experiment: theoretical: koff / estimated kon 1e6 1/Ms (SPR screening 37C)
Method: (§1) For screening assays to determine binding and dissociation rates of huMabJC18 variants to human Dkk1, either BIAcore or ProteOn XPR36 (BioRad, Inc.) systems were used. For the BIAcore assay, biotinylated-human Dkk1 was captured on SA (streptavidin) BIAcore chips according to the supplier's instructions. Biotinylated-human Dkk-1 protein was diluted into HBS-EP, and injected over the chip at a concentration of 5 μg/mL. Flow times across the individual chip channels were selected to achieve an antigen density of approximately 500-600 response units (RU). HBS-EP buffer was used as running buffer. Filtered recombinant E.coli cell lysates were injected at high temperature (37° C.) for 1 min at 30 ul/min, allowing a 1-5 min dissociation phase. Surfaces were regenerated with 8 mM NaOH+8% ethanol. A positive control Fab (clone 24) was injected twice at the start of the experiment, and again at the end of the assay to assess reproducibility.
For the ProteOn assay, biotinylated human Dkk-1 was injected for 1 min at serial fold dilutions empirically determined to yield different levels of immobilization (150-3000 RU) on five channels of a ProteOn NLC Neutravidin sensor chip. The sixth channel was left unmodified to serve as a reference surface. Recombinant Fabs in filtered E. coli lysates were injected at high temperature (37° C.) for 50 sec at 20 μl/min. Running buffer consisted of PBS+1 mg/ml BSA+0.005% Tween-20. The ProteOn is configured such that each injection flows over each of the five Dkk-1 channels as well as the reference channel, and six Fab samples can be injected simultaneously. Fab dissociation from the Dkk-1 surface was monitored for 20 min. The chip surface was regenerated with a 30-sec injection of 8% EtOH, 8 mM NaOH. Clone 24 Fab was used as control. Level of binding during association, and rate of dissociation for each clone was very consistent between different ligand channels. […]

[3] = target: T1, Recombinant human Dkk-1 (R&D Systems …); experiment: SPR screening 37C (BIAcore/ProteOn), Fab lysate over biotinylated human Dkk-1
Method: as §1
For the ProteOn assay, biotinylated human Dkk-1 was injected for 1 min at serial fold dilutions empirically determined to yield different levels of immobilization (150-3000 RU) on five channels of a ProteOn NLC Neutravidin sensor chip. The sixth channel was left unmodified to serve as a reference surface. Recombinant Fabs in filtered E. coli lysates were injected at high temperature (37° C.) for 50 sec at 20 μl/min. Running buffer consisted of PBS+1 mg/ml BSA+0.005% Tween-20. The ProteOn is configured such that each injection flows over each of the five Dkk-1 channels as well as the reference channel, and six Fab samples can be injected simultaneously. Fab dissociation from the Dkk-1 surface was monitored for 20 min. The chip surface was regenerated with a 30-sec injection of 8% EtOH, 8 mM NaOH. Clone 24 Fab was used as control. Level of binding during association, and rate of dissociation for each clone was very consistent between different ligand channels.

[4] = target: T2, recombinant mouse Dkk-2 (R&D systems …); experiment: ELISA, plate-coated antigen
Method: Dkk-1 specific antibodies were detected using the following ELISA based method. rhuDkk-1 protein (R&D systems cat no. 1096 DK/CF) was diluted to 1 ug/ml in coating buffer (Sigma carbonate/bicarbonate coating buffer pH 9.6 Cat No. C-3041 made up according to manufacturers instructions). 100 uls of Dkk-1 was added per well to Nunc Maxisorp 96 well plates and incubated overnight at 4° C. Wells were washed 4× with 250 uls/well of wash buffer (0.05% (v/v) Tween-20 (Sigma Cat no. P2287) in dPBS without Ca/Mg++ (Sigma Cat No. D8537)) then blocked with 200 uls/well of blocking buffer (1% PVA (Sigma cat no. 363170) (weight/volume) in dPBS (Sigma cat no.D8537)) for 2 hrs at room temperature. Blocking buffer was then removed by rapid decanting. […]
(§2) Binding of the test antibody to Dkk was determined by addition of a secondary antibody specific for the antibody species. […] Once developed, the plate absorbance was measured at 405 and 490 nm. Absorbance values were presented as the difference between absorbance at both wavelengths.
The ability of JC18 to bind to other species Dkk proteins was assessed using the ELISA protocol described above with the exception that plates were also coated with recombinant rat Dkk-1(R&D systems Cat No. 4010-DK/CF), mouse Dkk-1 (R&D systems Cat No. 1765-DK/CF), mouse Dkk-2 (R&D systems Cat No. 2435-DK/CF), and mouse Dkk-4 (R&D systems Cat No. 3105-DK/CF).

[5] = target: T1, Recombinant human Dkk-1 (R&D Systems …); experiment: SPR BIAcore 25C, JC18 captured by anti-mouse IgG, Dkk-1 injected
Method: (§3) For this assay, polyclonal anti-mouse IgG was amine-coupled to the BIAcore chip. Anti-Dkk-1 antibody JC18 is at 6.53 μg/ml, and was captured for 1 min at 5 μl/min. A five-fold series dilution of human, mouse or rat Dkk-1 (R&D Systems; from 0.4-250 nM) was injected for 1 min at 50-100 μl/min. Dissociation was monitored for 3-5 min. The chip was regenerated with two 30-sec pulses of 100 mM H₃PO₄.

[6] = target: T3, recombinant mouse Dkk-1 (R&D systems …); experiment: as above
Method: as §3

[7] = target: T4, recombinant rat Dkk-1 (R&D systems Cat No. 4010-DK/CF) (rat); experiment: as above
T4 construct: Bought
Method: as §3

[8] = target: T1, Recombinant human Dkk-1 (R&D Systems …); experiment: ELISA, plate coated with human DKK-1 at 1.0 ug/ml, JC18 titrated, OD read
Method: Dkk-1 specific antibodies were detected using the following ELISA based method. rhuDkk-1 protein (R&D systems cat no. 1096 DK/CF) was diluted to 1 ug/ml in coating buffer (Sigma carbonate/bicarbonate coating buffer pH 9.6 Cat No. C-3041 made up according to manufacturers instructions). 100 uls of Dkk-1 was added per well to Nunc Maxisorp 96 well plates and incubated overnight at 4° C. Wells were washed 4× with 250 uls/well of wash buffer (0.05% (v/v) Tween-20 (Sigma Cat no. P2287) in dPBS without Ca/Mg++ (Sigma Cat No. D8537)) then blocked with 200 uls/well of blocking buffer (1% PVA (Sigma cat no. 363170) (weight/volume) in dPBS (Sigma cat no.D8537)) for 2 hrs at room temperature. Blocking buffer was then removed by rapid decanting. Antibodies were diluted by consecutive 2-fold serial dilutions in blocking buffer and applied to each plate at 100 ul per well. Plates were incubated for 1 hour at RT and then washed as described above.
as §2

[9] = target: T5, recombinant human Dkk3 (R&D systems Cat No. 1118-DK/CF) (human, UniProt Q9UBP4 22-350); experiment: ELISA, plate coated with human DKK-3 at 1.0 ug/ml, JC18 titrated, OD read
T5 construct: Bought; also called hDkk-3
T5 sequence (Q9UBP4 22-350 limits assumed): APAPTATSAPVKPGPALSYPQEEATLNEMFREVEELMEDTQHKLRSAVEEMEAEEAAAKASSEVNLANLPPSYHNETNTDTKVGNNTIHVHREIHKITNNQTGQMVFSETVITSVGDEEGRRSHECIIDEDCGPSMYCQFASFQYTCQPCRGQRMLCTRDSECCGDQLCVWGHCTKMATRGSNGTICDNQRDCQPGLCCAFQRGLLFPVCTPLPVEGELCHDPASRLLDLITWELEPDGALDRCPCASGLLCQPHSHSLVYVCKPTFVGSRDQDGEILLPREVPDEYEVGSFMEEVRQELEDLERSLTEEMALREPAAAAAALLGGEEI

| Binder | Kd [1] [nM] | koff [1] [s⁻¹] | kon [1] [M⁻¹ s⁻¹] | Kd [2] [nM] | koff [3] [s⁻¹] | further results |
| --- | --- | --- | --- | --- | --- | --- |
| B1 | 0.008 | 8.55e-05 | 1.13e+07 |  |  |  |
| B2 | 0.03 | 8.55e-05 | 2.88e+06 |  |  |  |
| B3 |  |  |  | 5.51 | 0.00551 |  |
| B4 | 0.037 | 8.55e-05 | 2.31e+06 |  |  |  |
| B5 |  |  |  | 7.8 | 0.0078 |  |
| B6 |  |  |  | 2.88 | 0.00288 |  |
| B7 | 0.017 | 8.55e-05 | 5.18e+06 |  |  |  |
| B8 |  |  |  |  |  | binding result [4]: no binding (tested: 5 ug/ml); Kd [5]: 0.65 nM; koff [5]: 0.00207 s⁻¹; kon [5]: 3.18e+06 M⁻¹ s⁻¹; Kd [6]: 1.5 nM; koff [6]: 0.00254 s⁻¹; kon [6]: 1.74e+06 M⁻¹ s⁻¹; Kd [7]: 0.72 nM; koff [7]: 0.00275 s⁻¹; kon [7]: 3.8e+06 M⁻¹ s⁻¹; EC50 (read off the curve) [8]: ~3 ng/mL; binding result [9]: no binding (tested: 5 ug/ml) |
